The source of these data is article PMC8319308.

In this assay the target is Gx-SB (protein G adapter domain fused to the small BiT fragment of split NanoLuc) (UniProt P06654). Briefly: other; 4C2-SB (SB1) conjugate with 19C7-LB; LB-SB affinity.

What is called Kd is the free concentration of one partner at which half of the binding sites on the other are occupied at equilibrium, for simple one-to-one binding. Lower therefore signals tighter binding. For “Gx-LB (protein G adapter domain fused to the large BiT fragment of split NanoLuc) (from UniProt P06654)”, the Kd amounted to 2500 nM.
